In publication PMC4222533 (Biochemistry, 2014):

Molecular target: integrin αIIb cytoplasmic tail peptide (starting from W988)
Assay: ITC

B1: skelemin tandem IgC2 domains 4 and 5 with the interconnecting linker, C1354S (domain or fragment)
chain: DEEEMKRLLALSQEHKFPTVPTKSELAVEILEKGQVRFWMQAEKLSSNAKVSYIFNEKEIFEGPKYKMHIDRNTGIIEMFMEKLQDEDEGTYTFQIQDGKATGHSTLVLIGDVYKKLQKEAEFQRQEWIRKQGPHFAEYLSWEVTGESNVLLKCKVANIKKETHIVWYKDEREISVDEKHDFKDGICTLLITEFSKKDAGFYEVILKDDRGKDKSRLKLVD
modifications: uniformly 15N or 15N/13C labelled for NMR
**Q.** B1 was tested. Which Kd did it give?
**A.** 14.2 ± 4.3 µM
